Patent publication US10287317B2, “Proprotein convertase subtilisin kexin type 9 (PCSK9) allosteric binding ligands to modulate serum low density lipoprotein (LDL) levels” (SRX Cardio, LLC, priority 2013, dated 2019)
Where no end group is shown, it is not given here.

Assays:
PCSK9-WT protein = molecular target: T1, PCSK9-WT protein (Homo sapiens, UniProt Q8NBP7); experiment: Cellular diI-LDL uptake in HuH7 cells with PCSK9-WT; assay type: cell-based; conditions: HuH7, 1.0 μg/ml PCSK9-WT, 100 uM peptide (FIG. 2)
T1 construct: V5
Experimental: HuH7 cells were incubated in a 96-well plate for a total of 20 h in the absence (Cnt) or presence of 1.0 μg/ml PCSK9-WT protein alone (WT) or mixed with 100 uM of various SRX peptides. After 16 h, dil-LDL (5 ug/ml) was added to the incubation mixtures. After 4 h, fluorescence was measured (Ex: 520 nm/Em: 575 nm; cutoff: 550 nm). Dil-LDL uptake is calculated as RFU corrected for the number of cells.
(§1) LDL internalization was measured by uptake of a fluorescently tagged LDL molecule (diI-LDL) in the absence of exogenous PCSK9 (Cnt), in the presence of exogenous PCSK9 (normal PCSK9=WT, D374Y mutant PCSK9=DY), or in the presence of PCSK9 and a tested peptide (indicated as SRX##, or SRX if a single peptide results is shown in a graph).
Cells, such as HepG2, HuH7, FL83B or a cell line transfected with a short-hairpin PCSK9 knockdown sequence such as HepG2/shPCSK9, HuH7/shPCSK9, FL83B/shPCSK9, were seeded at 2×10^4 cells/well in a 96-well plate and cultured at 37 degC in RPMI+10% FBS. After approximately 24 hours, the cell media was aspirated off and replaced with RPMI+3-5 mg/mL LPDS (Lipoprotein Deficient Serum, Millipore) media for further experimentation. Benjannet et al., “Effects of the prosegment and pH on the activity of PCSK9: evidence for additional processing events” J Biol Chem. 285(52): 40965-40978 (2010).
Peptide activity was assessed by culturing cells with: i) no SRX peptide/PCSK9 protein complex (control, Cnt); ii) PCSK9 protein; and iii) SRX peptide/PCSK9 complex. Various permutations of these experimental conditions were also used, including: i) the addition of wild type PCSK9 (WT); ii) a mutant PCSK9 (e.g., D374Y mutant PCSK9, DY); iii) various SRX peptides and/or PCSK9 at the same concentration and/or combinations; iv) various SRX peptides and/or PCSK9 at different concentrations and/or combinations; v) the use of different cells, as mentioned above, with or without a transfected short-hairpin sequence; vi) a pre-incubation of the PCSK9 and SRX peptide (e.g., 1, hour, 2 hours, 3 hours, 4 hours etc.); vii) various temperatures including, but not limited to, body temperature (e.g., 37° C.), supraphysiologic temperature (e.g., 39° C.); and viii) with/without agitation (e.g., shaker or gentle periodic vortexing).
Cells were cultured using one of the combinations of conditions described in the preceding paragraph for 16 hours. After 16 hours, a quantity of diI-LDL (Low density lipoprotein coupled with 1,1′-dioctadecyl-3,3,3′,3′-tetramethylindocarbocyanine perchlorate) needed to bring the media concentration to 5 ug/mL of diI-LDL was added to the culture well and cells continued to be cultured under these new conditions for 4 additional hours. At the end of the 4-hour incubation period (20 total hours of cell culture), the cellular uptake was halted with the addition of 4% formaldehyde in 10 uM Hoechst 33342 in a solvent such as deionized autoclaved water or PBS, and specimens were incubated at 20° C. for 20 minutes. Cell specimens were rinsed twice with PBS and then fluorescence measured with excitation at 360 nm and emission detected at 460 nm to measure DNA content. Cell specimens were then be incubated with a 0.1% SDS in a 0.1 N NaOH solution while being shaken for 10 minutes. Fluorescence of the diI-LDL in the specimens were quantified using excitation at 530 nm and resulting emission at 580 nm.
Fluorescence measurements of diI-LDLR were normalized to estimated cell numbers, determined from the Hoechst fluorescence. Data was analyzed for the different experimental conditions and reported as percentage relative fluorescence units (RFU) of the Cnt specimen. Percent inhibition was calculated as the difference in RFU of a peptide exposed specimen to the RFU of PCSK9-no peptide, divided by the RFU difference in PCSK9-no peptide to RFU of Cnt specimen, also expressed as [(SRX:RFU)−(PCSK9-no peptide:RFU)]/[(PCSK9-no peptide:RFU)−(Cnt:RFU)]×100.

normal PCSK9 (WT) = normal PCSK9 (WT) (Homo sapiens, UniProt Q8NBP7); experiment: Cellular diI-LDL uptake in FL-83B cells with WT PCSK9; assay type: cell-based, mouse; conditions: FL83B, WT 1.2 ug/ml, pre-incubated 3 hrs at 37 C, dose dependent manner (FIG. 7)
Experimental: After 16 h, dil-LDL (5 ug/ml) was added to the incubation mixtures. After 4 h, fluorescence was measured (Ex: 520 nm/Em: 575 nm; cutoff: 550 nm). Dil-LDL uptake is calculated as RFU corrected for the number of cells. The PCSK9 and −/+SRX55 [SEQ ID NO: 2] mixtures were pre-incubated for 3 hrs at 37 C prior to addition to the cells.
as §1, with “graph). […]” for “graph).”
Peptide activity was assessed by culturing cells with: i) no SRX peptide/PCSK9 protein complex (control, Cnt); ii) PCSK9 protein; and iii) SRX peptide/PCSK9 complex. […]
Cells were cultured using one of the combinations of conditions described in the preceding paragraph for 16 hours. After 16 hours, a quantity of diI-LDL (Low density lipoprotein coupled with 1,1′-dioctadecyl-3,3,3′,3′-tetramethylindocarbocyanine perchlorate) needed to bring the media concentration to 5 ug/mL of diI-LDL was added to the culture well and cells continued to be cultured under these new conditions for 4 additional hours. […] Fluorescence of the diI-LDL in the specimens were quantified using excitation at 530 nm and resulting emission at 580 nm. […]

T1 sequence (Q8NBP7 153-692): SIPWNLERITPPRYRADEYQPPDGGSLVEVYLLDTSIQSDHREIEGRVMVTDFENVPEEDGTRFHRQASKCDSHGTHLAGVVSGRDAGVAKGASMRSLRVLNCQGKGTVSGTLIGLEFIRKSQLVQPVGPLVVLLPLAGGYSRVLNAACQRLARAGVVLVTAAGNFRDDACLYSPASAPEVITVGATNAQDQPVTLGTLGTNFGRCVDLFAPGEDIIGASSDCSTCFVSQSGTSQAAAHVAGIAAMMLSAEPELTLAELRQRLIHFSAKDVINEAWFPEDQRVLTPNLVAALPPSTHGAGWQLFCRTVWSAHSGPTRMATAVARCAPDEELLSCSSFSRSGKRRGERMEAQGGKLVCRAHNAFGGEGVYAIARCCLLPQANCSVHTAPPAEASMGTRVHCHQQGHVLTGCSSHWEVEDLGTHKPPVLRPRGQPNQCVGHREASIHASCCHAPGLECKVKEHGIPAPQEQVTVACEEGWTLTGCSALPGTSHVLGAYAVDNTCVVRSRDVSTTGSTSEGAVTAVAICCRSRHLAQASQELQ
Chain of normal PCSK9 (WT) (Q8NBP7 153-692): as above

Val-Tyr-Val-Arg-Phe-Trp (VYVRFW; not fully specified (C-terminus); printed as Val-Tyr-Val-Arg-Phe-Trp) [Compound 1]
LDL internalization (dil-LDL % uptake vs Cnt) (PCSK9-WT protein): positively modulated (increased) | LDL internalization (dil-LDL % uptake vs Cnt) (normal PCSK9 (WT)): positively modulated (increased)
